Publication PMC6212398 (Nature Communications, 2018)

B1: Hsp27 IPV peptide (native 9-mer EITIPVTFE) (peptide)
peptide: EITIPVTFE
notes: Human Hsp27 (HSPB1), C-terminal IPV (IXI) motif, 9-mer; source: synthetic peptide, bought: Genescript
B2: Hsp27 IPV H peptide (EITIPVTHE) (peptide)
peptide: EITIPVTHE
notes: Human Hsp27 (HSPB1) IPV 9-mer with the penultimate phenylalanine swapped for histidine (the residue at this position in the motif of BAG3); also called His-containing IPV peptide; chimeric peptide; source: synthetic peptide, bought: Genescript
B3: Hsp27 IPV H peptide with the second X residue (Pro) of IXIXV mutated to alanine (EITIAVTHE) (peptide)
peptide: EITIAVTHE
notes: Human Hsp27 (HSPB1) IPV peptide in the His-containing context with the proline of IPV mutated to alanine; source: synthetic peptide, bought: Genescript
B4: Hsp27 IPV H peptide with Ile179 mutated to alanine (peptide)
chain: EITAPVTHE
modifications: EITAPVTHE. The paper numbers the peptide from E176, so printed Ile179 (I of IPV) is UniProt I181. Peptide termini chemistry is not stated.
B5: Hsp27 IPV H peptide with Val181 mutated to alanine (peptide)
chain: EITIPATHE
modifications: EITIPATHE. The paper numbers the peptide from E176, so printed Val181 (V of IPV) is UniProt V183. Peptide termini chemistry is not stated.

How the values were obtained:
Assay in all cases: ITC; peptide (1 mM) titrated into a cell with Hsp27 proteins (100 µM); SEC buffer (50 mM sodium phosphate, 100 mM NaCl); 25 °C; one-site binding model
Settings in all cases: both partners purified
[1] = biological target: T1, Hsp27 alpha-crystallin domain (ACD, residues Q80–S176) (human, UniProt P04792 80-176)
T1 construct: Human Hsp27 (HSPB1), alpha-crystallin domain, residues Q80–S176; Used 15N-labelled (observed in HSQC) and unlabelled; Vector was a gift of the Klevit laboratory; also called Hsp27 ACD

[2] = biological target: T2, Hsp27 3D (pseudo-phosphorylation mutant S15D, S78D, S82D) (human, UniProt P04792 1-205, S15 replaced with aspartate | S78 replaced with aspartate | S82 replaced with …)
T2 construct: Human Hsp27 (HSPB1) in which three serines (S15, S78 and S82) are replaced with aspartate; Vector was a gift of the Dickey laboratory; Compared throughout with the full-length wild type, so probably the whole protein

[3] = biological target: T3, Hsp27 ΔNTD (residues 80–205) (human, UniProt P04792 80-205)
T3 construct: Human Hsp27 (HSPB1) without the N-terminal domain, residues 80–205; Heterogeneous mixture of 3–5 mers; source: E. coli BL21 (DE3), purified (Ni-NTA, size exclusion)
T3 sequence (P04792 80-205, stated change not applied): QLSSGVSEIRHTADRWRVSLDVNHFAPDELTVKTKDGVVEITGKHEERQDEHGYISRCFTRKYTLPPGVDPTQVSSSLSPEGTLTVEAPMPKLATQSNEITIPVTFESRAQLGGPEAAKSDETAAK

T1 sequence (P04792 80-176): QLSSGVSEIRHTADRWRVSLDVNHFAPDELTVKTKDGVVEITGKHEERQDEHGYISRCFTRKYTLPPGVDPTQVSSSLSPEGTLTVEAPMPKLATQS
T2 sequence (P04792 whole entry S15D/S78D/S82D): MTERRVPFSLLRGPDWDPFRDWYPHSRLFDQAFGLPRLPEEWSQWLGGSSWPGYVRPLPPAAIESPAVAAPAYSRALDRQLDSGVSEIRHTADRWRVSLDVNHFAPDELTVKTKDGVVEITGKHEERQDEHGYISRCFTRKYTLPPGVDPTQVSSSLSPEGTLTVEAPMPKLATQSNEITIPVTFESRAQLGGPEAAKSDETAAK

Row | Binder | Kd [1] [µM] | Kd [2] [µM] | Kd [3] [µM]
1 | B1 | > 25 | – | –
2 | B2 | 11.5 | > 50 | 11.4
3 | B3 | ~5 | – | –
4 | B4 | > 25 | – | –
5 | B5 | > 25 | – | –
